Blank lines part the entries; values can stand above or below the binder they belong to.
Columns and labels:
4H72-bH = target: T1, 4H72-bH; test: two-hybrid library CCNG1;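 further: natural log of median RNA to DNA barcode read ratio; higher means stronger binding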
T1 chain: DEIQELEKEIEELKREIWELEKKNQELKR

4H967-bH = target: T2, 4H967-bH; test: two-hybrid library CCNG1;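 further: natural log of median RNA to DNA barcode read ratio; higher means stronger binding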
T2 chain: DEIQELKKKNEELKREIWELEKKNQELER

4H908-bH = target: T3, 4H908-bH; test: two-hybrid library CCNG1;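 further: natural log of median RNA to DNA barcode read ratio; higher means stronger binding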
T3 chain: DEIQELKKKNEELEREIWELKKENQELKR

4H797-bH = target: T4, 4H797-bH; test: two-hybrid library CCNG1;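 further: natural log of median RNA to DNA barcode read ratio; higher means stronger binding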
T4 chain: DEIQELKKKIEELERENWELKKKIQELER

4H754-bH = target: T5, 4H754-bH; test: two-hybrid library CCNG1
T5 chain: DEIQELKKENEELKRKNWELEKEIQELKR

4H953-bH = target: T6, 4H953-bH; test: two-hybrid library CCNG1
T6 chain: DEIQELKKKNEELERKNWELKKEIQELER

4H883-bH = target: T7, 4H883-bH; test: two-hybrid library CCNG1
T7 chain: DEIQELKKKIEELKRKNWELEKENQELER

4H918-bH = target: T8, 4H918-bH; test: two-hybrid library CCNG1
T8 chain: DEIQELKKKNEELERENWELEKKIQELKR

4H464-AA = target: T9, 4H464-AA; test: two-hybrid library CCmax; details: mean of both orientations
T9 chain: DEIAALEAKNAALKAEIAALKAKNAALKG

4H446-AA = target: T10, 4H446-AA; test: two-hybrid library CCmax; details: mean of both orientations
T10 chain: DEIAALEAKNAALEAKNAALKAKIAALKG

4H483-AA = target: T11, 4H483-AA; test: two-hybrid library CCmax; details: mean of both orientations
T11 chain: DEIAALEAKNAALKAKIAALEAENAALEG

4H3969-AA = target: T12, 4H3969-AA; test: two-hybrid library CCmax
T12 chain: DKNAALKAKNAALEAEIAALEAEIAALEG

4H63-AA = target: T13, 4H63-AA; test: two-hybrid library CCmax; details: mean of both orientations
T13 chain: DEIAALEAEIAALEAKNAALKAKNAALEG

4H968-bA = target: T14, 4H968-bA; test: two-hybrid library CCNG1
T14 chain: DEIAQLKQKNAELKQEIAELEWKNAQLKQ

4H570-AA = target: T15, 4H570-AA; test: two-hybrid library CCmax; details: mean of both orientations
T15 chain: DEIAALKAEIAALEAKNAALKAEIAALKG

4H3865-AA = target: T16, 4H3865-AA; test: two-hybrid library CCmax; details: mean of both orientations
T16 chain: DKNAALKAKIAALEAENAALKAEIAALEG

4H3753-AA = target: T17, 4H3753-AA; test: two-hybrid library CCmax; details: mean of both orientations
T17 chain: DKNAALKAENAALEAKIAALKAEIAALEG

4H710-AA = target: T18, 4H710-AA; test: two-hybrid library CCmax; details: mean of both orientations
T18 chain: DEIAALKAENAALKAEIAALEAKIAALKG

4H891-AA = target: T19, 4H891-AA; test: two-hybrid library CCmax; details: mean of both orientations
T19 chain: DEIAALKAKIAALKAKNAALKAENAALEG

4H3590-AA = target: T20, 4H3590-AA; test: two-hybrid library CCmax; details: mean of both orientations
T20 chain: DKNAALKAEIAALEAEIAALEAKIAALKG

4H909-AA = target: T21, 4H909-AA; test: two-hybrid library CCmax; details: mean of both orientations
T21 chain: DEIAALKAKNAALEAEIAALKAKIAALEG

4H94-AA = target: T22, 4H94-AA; test: two-hybrid library CCmax; details: mean of both orientations
T22 chain: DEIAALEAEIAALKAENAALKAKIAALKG

4H310-AA = target: T23, 4H310-AA; test: two-hybrid library CCmax
T23 chain: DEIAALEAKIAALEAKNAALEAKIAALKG

4H850-AA = target: T24, 4H850-AA; test: two-hybrid library CCmax; details: mean of both orientations
T24 chain: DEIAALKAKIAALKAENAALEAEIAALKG

4H3395-AA = target: T25, 4H3395-AA; test: two-hybrid library CCmax; details: mean of both orientations
T25 chain: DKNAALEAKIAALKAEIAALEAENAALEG

4H3165-AA = target: T26, 4H3165-AA; test: two-hybrid library CCmax; details: mean of both orientations
T26 chain: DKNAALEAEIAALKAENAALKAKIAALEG

4H745-AA = target: T27, 4H745-AA; test: two-hybrid library CCmax; details: mean of both orientations
T27 chain: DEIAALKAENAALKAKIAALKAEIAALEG

4H485-AA = target: T28, 4H485-AA; test: two-hybrid library CCmax; details: mean of both orientations
T28 chain: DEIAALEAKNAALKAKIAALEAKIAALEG

4H3130-AA = target: T29, 4H3130-AA; test: two-hybrid library CCmax; details: mean of both orientations
T29 chain: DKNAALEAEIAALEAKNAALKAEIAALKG

4H3381-AA = target: T30, 4H3381-AA; test: two-hybrid library CCmax; details: mean of both orientations
T30 chain: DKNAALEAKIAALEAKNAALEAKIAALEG

4H629-AA = target: T31, 4H629-AA; test: two-hybrid library CCmax; details: mean of both orientations
T31 chain: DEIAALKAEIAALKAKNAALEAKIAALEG

4H930-AA = target: T32, 4H930-AA; test: two-hybrid library CCmax; details: mean of both orientations
T32 chain: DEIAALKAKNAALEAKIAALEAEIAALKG

4H3410-AA = target: T33, 4H3410-AA; test: two-hybrid library CCmax; details: mean of both orientations
T33 chain: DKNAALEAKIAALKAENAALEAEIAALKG

4H536-AA = target: T34, 4H536-AA; test: two-hybrid library CCmax; details: mean of both orientations
T34 chain: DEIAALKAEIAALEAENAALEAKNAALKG

4H3120-AA = target: T35, 4H3120-AA; test: two-hybrid library CCmax; details: mean of both orientations
T35 chain: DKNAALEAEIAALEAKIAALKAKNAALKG

4H458-AA = target: T36, 4H458-AA; test: two-hybrid library CCmax; details: mean of both orientations
T36 chain: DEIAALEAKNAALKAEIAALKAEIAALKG

4H797-AA = target: T37, 4H797-AA; test: two-hybrid library CCmax; details: mean of both orientations
T37 chain: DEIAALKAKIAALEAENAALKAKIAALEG

4H3697-AA = target: T38, 4H3697-AA; test: two-hybrid library CCmax; details: mean of both orientations
T38 chain: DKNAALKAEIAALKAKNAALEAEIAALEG

4H968-bN = target: T39, 4H968-bN; test: two-hybrid library CCNG1
T39 chain: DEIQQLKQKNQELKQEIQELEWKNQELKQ

4H953-bN = target: T40, 4H953-bN; test: two-hybrid library CCNG1
T40 chain: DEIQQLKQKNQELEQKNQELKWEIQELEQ

4H967-bN = target: T41, 4H967-bN; test: two-hybrid library CCNG1
T41 chain: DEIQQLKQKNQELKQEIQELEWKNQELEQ

APC9291-AA = target: T42, APC9291-AA; test: two-hybrid library CCmax; details: mean of both orientations
T42 chain: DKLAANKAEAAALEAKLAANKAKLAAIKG

APC9182-AA = target: T43, APC9182-AA; test: two-hybrid library CCmax; details: mean of both orientations
T43 chain: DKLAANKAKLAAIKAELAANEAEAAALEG

APC9806-AA = target: T44, APC9806-AA; test: two-hybrid library CCmax; details: mean of both orientations
T44 chain: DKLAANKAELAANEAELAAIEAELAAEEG

APC9141-AA = target: T45, APC9141-AA; test: two-hybrid library CCmax
T45 chain: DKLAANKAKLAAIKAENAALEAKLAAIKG

interaction score (4H72-bH): 0.746
interaction score (4H967-bH): 0.0764
interaction score (4H908-bH): 0.614
interaction score (4H797-bH): 0
interaction score (4H754-bH): -0.378
interaction score (4H953-bH): 0.653
interaction score (4H883-bH): 1.69
interaction score (4H918-bH): 0.163
B1: 4H72-bH (peptide)
chain: DEIQELEKEIEELKREIWELEKKNQELKR

interaction score (4H464-AA): -0.91
interaction score (4H446-AA): 1.05
interaction score (4H483-AA): -1.99
interaction score (4H3969-AA): -1.61
interaction score (4H63-AA): -1.93
B2: 4H3969-AA (peptide)
chain: DKNAALKAKNAALEAEIAALEAEIAALEG

interaction score (4H968-bA): -1.46
B3: 4H968-bA (peptide)
chain: DEIAQLKQKNAELKQEIAELEWKNAQLKQ

interaction score (4H570-AA): 1.97
interaction score (4H3865-AA): 1.13
interaction score (4H3753-AA): -1.8
interaction score (4H710-AA): -0.577
interaction score (4H891-AA): -0.168
interaction score (4H3590-AA): -0.923
interaction score (4H909-AA): -1.39
interaction score (4H94-AA): -0.904
interaction score (4H310-AA): 1.89
interaction score (4H850-AA): 1.33
interaction score (4H3395-AA): -1.03
interaction score (4H3165-AA): -1.5
interaction score (4H745-AA): -0.998
interaction score (4H485-AA): -0.778
interaction score (4H3130-AA): -0.0638
interaction score (4H3381-AA): 0.757
interaction score (4H629-AA): -0.767
interaction score (4H930-AA): -1.11
interaction score (4H3410-AA): -0.251
interaction score (4H536-AA): -0.922
interaction score (4H3120-AA): -1.43
interaction score (4H458-AA): 1.7
interaction score (4H797-AA): -0.563
interaction score (4H3697-AA): 0.375
B4: 4H310-AA (peptide)
chain: DEIAALEAKIAALEAKNAALEAKIAALKG

interaction score (4H968-bN): -1.24
interaction score (4H953-bN): -1.67
interaction score (4H967-bN): -1.76
B5: 4H953-bN (peptide)
chain: DEIQQLKQKNQELEQKNQELKWEIQELEQ

interaction score (APC9291-AA): -1.86
interaction score (APC9182-AA): -1.82
interaction score (APC9806-AA): -1.67
interaction score (APC9141-AA): -2.08
B6: APC9141-AA (peptide)
chain: DKLAANKAKLAAIKAENAALEAKLAAIKG
